The values below come from paper PMC10914751 (Nature Communications, 2024).

Sequences and labels used below:
B1: Plk4 CPB(581–808) (domain or fragment, UniProt O00444 581-808, looked up)
chain: GYQNRTLRSITSPLVAHRLKPIRQKTKKAVVSILDSEEVCVELVKEYASQEYVKEVLQISSDGNTITIYYPNGGRGFPLADRPPSPTDNISRYSFDNLPEKYWRKYQYASRFVQLVRSKSPKITYFTRYAKCILMENSPGADFEVWFYDGVKIHKTEDFIQVIEKTGKSYTLKSESEVNSLKEEIKMYMDHANEGHRICLALESIISEEERKTRSAPFFPIIIGRKPG
notes: Polo-like kinase 4 (Plk4), cryptic polo-box (CPB), residues 581-808; a TEV site follows His-MBP and the legends call the protein CPB(581–808); Two CPB chains are estimated for each Vpr•VprBP; source: E. coli, purified

Experiment [1] addresses T1, Vpr•VprBP WD40-AR complex ( | HIV-1 (NL4-3 isolate), UniProt Q9Y4B6 1057-1507; P12520 1-96).
T1 construct: DNA synthesised by GenScript; TEV digestion is told for the SEC sample; also called VprBP (WD40-AR)•Vpr complex; source: Trichoplusia ni (Tni)-FNL insect cells, co-expressed, purified (HisTrap, TEV digestion); not shown: His, N-terminal, cleaved; MBP, N-terminal, cleaved; copies: 1 + 1
As to the kind of experiment: SEC; purified proteins (Vpr, VprBP WD40-AR, Plk4 CPB, DDB1); TEV-digested HisTrap eluate of Vpr•VprBP mixed with Plk4 CPB; 20 mM Tris-HCl pH 7.5, 100 mM NaCl, 10% glycerol; stoichiometry estimated from Coomassie intensity. The settings on record: both partners purified.

Experiment [2] has as its target T2, DDB1 (purified) (UniProt Q16531 1-1140).
T2 construct: DDB1
The description is as above. To be noted: both partners purified.

Experiment [3] addresses B1. Described as above. The settings on record: both partners purified.
The target in experiment [4] is T3, Plk1 (UniProt P53350 1-603).
T3 construct: Polo-like kinase 1 (Plk1); also called mitotic Plk1; source: HEK293T, transfected, in lysate
Briefly: co-IP; HEK293T cells transfected with the indicated constructs; TBSN buffer (20 mM Tris-HCl pH 8.0, 120 mM NaCl, 0.5% Nonidet P-40, 5 mM EGTA, 1.5 mM EDTA, 2 mM DTT); immunoblot; Supplementary Fig. 2b under thymidine or nocodazole treatment. The settings on record: partners not purified.

T2 sequence (Q16531 whole entry): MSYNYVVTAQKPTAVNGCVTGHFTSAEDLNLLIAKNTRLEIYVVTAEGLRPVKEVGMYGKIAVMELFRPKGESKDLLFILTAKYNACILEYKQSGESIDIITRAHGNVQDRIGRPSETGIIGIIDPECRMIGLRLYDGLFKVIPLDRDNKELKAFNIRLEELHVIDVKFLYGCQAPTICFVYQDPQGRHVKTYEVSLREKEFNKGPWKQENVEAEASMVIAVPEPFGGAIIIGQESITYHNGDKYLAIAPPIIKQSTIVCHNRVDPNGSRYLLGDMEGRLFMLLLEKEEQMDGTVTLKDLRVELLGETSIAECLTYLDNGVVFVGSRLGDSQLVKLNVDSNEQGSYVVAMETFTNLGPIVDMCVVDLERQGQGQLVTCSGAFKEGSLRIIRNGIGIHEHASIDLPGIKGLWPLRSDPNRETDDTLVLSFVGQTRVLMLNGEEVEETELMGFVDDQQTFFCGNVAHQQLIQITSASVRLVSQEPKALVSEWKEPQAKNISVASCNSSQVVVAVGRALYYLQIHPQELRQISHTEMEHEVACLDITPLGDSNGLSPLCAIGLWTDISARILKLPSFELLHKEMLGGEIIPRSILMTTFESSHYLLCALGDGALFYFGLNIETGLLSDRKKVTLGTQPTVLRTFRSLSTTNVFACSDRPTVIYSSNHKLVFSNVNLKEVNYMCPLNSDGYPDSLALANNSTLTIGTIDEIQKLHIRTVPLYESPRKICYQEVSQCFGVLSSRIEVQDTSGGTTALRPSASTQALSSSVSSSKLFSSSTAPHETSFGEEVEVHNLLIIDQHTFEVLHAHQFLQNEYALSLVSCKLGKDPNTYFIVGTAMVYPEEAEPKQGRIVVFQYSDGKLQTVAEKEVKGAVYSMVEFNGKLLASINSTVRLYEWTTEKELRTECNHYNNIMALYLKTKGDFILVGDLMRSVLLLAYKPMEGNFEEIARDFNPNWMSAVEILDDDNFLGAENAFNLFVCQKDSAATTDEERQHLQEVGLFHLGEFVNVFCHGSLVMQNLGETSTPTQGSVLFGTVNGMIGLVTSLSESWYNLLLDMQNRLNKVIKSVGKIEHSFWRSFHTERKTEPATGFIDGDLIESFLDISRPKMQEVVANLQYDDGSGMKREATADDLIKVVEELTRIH
T3 sequence (P53350 whole entry): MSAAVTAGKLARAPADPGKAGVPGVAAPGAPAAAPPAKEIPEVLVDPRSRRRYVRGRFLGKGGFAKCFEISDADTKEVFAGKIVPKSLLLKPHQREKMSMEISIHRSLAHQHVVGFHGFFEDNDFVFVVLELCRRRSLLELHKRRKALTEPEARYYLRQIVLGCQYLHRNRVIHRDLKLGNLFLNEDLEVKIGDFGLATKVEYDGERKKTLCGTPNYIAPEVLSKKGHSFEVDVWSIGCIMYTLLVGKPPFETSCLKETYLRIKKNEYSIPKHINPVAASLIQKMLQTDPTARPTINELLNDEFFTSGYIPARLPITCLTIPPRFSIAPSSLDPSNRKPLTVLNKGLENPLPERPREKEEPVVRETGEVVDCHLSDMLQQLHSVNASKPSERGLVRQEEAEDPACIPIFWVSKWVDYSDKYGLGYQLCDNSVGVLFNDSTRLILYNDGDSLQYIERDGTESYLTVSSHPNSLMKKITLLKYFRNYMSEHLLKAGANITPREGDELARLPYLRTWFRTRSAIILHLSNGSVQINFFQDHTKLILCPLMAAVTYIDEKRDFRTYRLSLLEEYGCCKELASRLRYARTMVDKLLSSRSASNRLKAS

Take B1: the “stoichiometry N” value in experiment [1] is about 2.

B2: VprBP WD40-AR(1057–1507) (domain or fragment)
chain: not shown
notes: source: Trichoplusia ni (Tni)-FNL insect cells, purified (HisTrap, TEV digestion, SEC); not shown: His, N-terminal, cleaved; MBP, N-terminal, cleaved
Take B2: the binding result in experiment [2] is recorded as “binds”.

B3: Vpr (co-expressed with VprBP WD40-AR in insect cells) (natural protein)
chain: MEQAPEDQGPQREPYNEWTLELLEELKSEAVRHFPRIWLHNLGQHIYETYGDTWAGVEAIIRILQQLLFIHFRIGCRHSRIGVTRQRRARNGASRS
notes: also called 11-kDa Vpr
In the case of B3, in experiment [3], the binding result is on record as “binds”.

B4: VprBP (transfected; construct not specified in the text) (natural protein)
chain: not shown
notes: VprBP (DDB1-CUL4-Associated Factor 1); may be full length or a WD40-containing fragment, and in some panels perhaps the endogenous protein; source: HEK293T, transfected, in lysate
Turning to B4, the “fold weaker binding than Plk4” value in experiment [4] was about 3 fold.
